Measured values published in patent US20250011363A1, “OPTIMIZED SHORTENED PEPTIDE THAT BINDS TO ACETYLCHOLINE RECEPTOR, AND USE THEREOF” (SKINMED CO., LTD., priority 2021, published 2025).

Each binder was assayed against acetylcholine receptor (assay: SPR, peptide at 10 uM on immobilised AchR).

Binder	Binding affinity (RU)
KRLISR [6mer-1-29]	124 RU
KKQFTR [6mer-1-18]	145 RU
RKVIRK [6mer-1-24]	142 RU
RKGITK [6mer-1-41]	122 RU
RKQILR [6mer-1-2]	142 RU
RKSRCK [6mer-1-6]	153 RU
KKWVLR [6mer-1-37]	121 RU
KRSVSR [6mer-1-23]	153 RU
KRSFTK [6mer-1-27]	142 RU
KRQYSK [6mer-1-7]	126 RU
KRWRLK [6mer-1-10]	139 RU
KRQFTK [6mer-1-11]	139 RU
KRSQYK [6mer-1-40]	121 RU
KKRIQR [6mer-1-42]	139 RU
KKQYCR [6mer-1-16]	136 RU
RKWLYK [6mer-1-34]	135 RU
RKRRSR [6mer-1-3]	154 RU
RKWQQK [6mer-1-36]	124 RU
RRGRQR [6mer-1-35]	136 RU
KKLIRR [6mer-1-25]	135 RU
KKSYCR [6mer-1-33]	154 RU
KKSRYK [6mer-1-20]	147 RU

Binder	Binding affinity (RU)
KRQICK [6mer-1-15]	123 RU
KRQIRK [6mer-1-5]	135 RU
KKVISK [6mer-1-1]	122 RU
RKRFLK [6mer-1-14]	145 RU
RRWISK [6mer-1-28]	125 RU
RKRLCK [6mer-1-22]	126 RU
RRQQTK [6mer-1-38]	126 RU
RKGQCR [6mer-1-32]	121 RU
RKWYLK [6mer-1-21]	137 RU
RKSFCK [6mer-1-9]	154 RU
RRQVRR [6mer-1-30]	154 RU
KRQIQR [6mer-1-13]	147 RU
KRLYCR [6mer-1-31]	121 RU
KRVQCR [6mer-1-17]	135 RU
KKQICK [6mer-1-12]	128 RU
KRSFYR [6mer-1-19]	135 RU
RKRRRK [6mer-1-8]	125 RU
KRQYCK [6mer-1-44]	148 RU
KKRVLR [6mer-1-26]	123 RU
RKSFYK [6mer-1-4]	139 RU
RKVYQK [6mer-1-39]	139 RU

The binders below were run against acetylcholine receptor (assay: SPR, AchR immobilized on chip, peptide at 10 uM).

Binder	Binding affinity
RRLSKK [6mer-2-60]	148 RU
KGRRRK [6mer-2-68]	142 RU
RGFQRK [6mer-2-61]	148 RU
RHHNRR [6mer-2-1200]	30 RU
KLFCKK [6mer-2-67]	124 RU
KQRCRR [6mer-2-57]	139 RU
RCTNKR [6mer-2-1199]	27 RU
KSVSKK [6mer-2-64]	136 RU
KGVCKR [6mer-2-65]	148 RU
KSFRKR [6mer-2-63]	121 RU
RLVTKR [6mer-2-62]	147 RU
RVLSRK [6mer-2-59]	123 RU
RVIRRR [6mer-2-66]	123 RU
KRLQRK [6mer-2-58]	122 RU
